From patent publication US11306137B2, “Antibody binding agents that bind Acinetobactor and uses thereof” (priority 2015, dated 2022)
Entries after “also recorded” stand apart in the source; their conditions may differ.

Experiments:
A. baumannii HUMC1 [1] = assay: Lethal bloodstream (i.v. tail-vein) infection model, survival; assay type: in vivo, mice; conditions: for protection against infection (survival): 2×10^7 HUMC1 i.v., treated once i.v., FIG. 2; for survival: HUMC1 i.v., FIG. 3 / FIG. 7B
Method: (§1) To determine if C8 could treat, inhibit and/or prevent A. baumannii induced sepsis, mice were infected i.v. via the tail-vein with 2×10^7 hyper-virulent A. baumannii HUMC1 and were treated once i.v. with either protein-G purified C8 mAb (approximately 10 or 20 μg doses) or an isotype-control antibody in a saline buffer. […] In a second experiment, mice were similarly infected and the C8 MAb was administered once i.v. in saline buffer at a low (5 μg) and very low (0.5 μg) dose.
(§2) Male C3HeB/Fe mice (Jackson Labs) between the ages of 7-10 wk were used for all experiments. All animal work was conducted following approval by the Institutional Animal Use and Care Committee at the University of Southern California, in compliance with the recommendations in the Guide for the Care and Use of Laboratory Animals of the National Institutes of Health.
(§3) For the bloodstream infection model, mice were infected intravenously via the tail-vein with designated inocula of A. baumannii isolates. An oropharyngeal model of aspiration pneumonia that recapitulates hospital- or ventilator-associated pneumonia (VAP) relevant to ICU populations was used. In brief, mice were sedated with isoflurane, hung by their maxillary incisors, tongues held to prevent swallowing, and 50 μL of bacterial inocula was placed in the trachea to allow inoculation of the organisms into the lungs by reflexive aspiration.

A. baumannii HUMC1 [2] = assay: Confocal immunofluorescence surface binding; conditions: FIG. 5
Method: To detect surface binding of A. baumannii by purified C8 MAb, mid-log-growth A. baumannii strains were washed twice, resuspended in PBS, stained with NucBlue Reagent (Life Technologies) for 30 min at 37° C., pelleted, and washed again in PBS. Primary antibody, either C8 MAb or Isotype Control IgG1 (R&D Systems, Product #MAB002), was added to 100 μL of bacteria to a final concentration of 100 μg/mL and incubated for 30 min at 37° C. Bacteria were washed twice and resuspended in secondary antibody goat anti-mouse IgG AlexaFluor647 (Life Technologies, Product #A21235) at a final concentration of 2 μg/mL for 20 min at 37° C. After washing twice with PBS, bacteria was resuspended in 50 μL PBS, and 10 μL drops were placed on slides and mounted with cover slips and nail polish. Images were taken using a Spinning Disc Confocal Microscope (Zeiss Axiolmager).

[3] = test system: pili preparations from A. baumannii; assay: Western blot of pili preparations (proteinase K or periodate treated); assay type: binding
Method: Since it appeared that C8 bound to the pili on the surface of the bacteria, an established protocol was to sheer pili off the bacteria in an attempt to more accurately determine the epitope targeted by C8. To distinguish protein from carbohydrate targets, the pili preparation was divided into three portions: one fraction was treated with proteinase K, one fraction was treated with periodate to degrade carbohydrates, and one fraction was untreated. The pili preparations were run in a western blot and stained with C8 or isotype control MAb.

A. baumannii HUMC1 [4] = assay: In vitro complement susceptibility (bacterial growth in mouse serum); assay type: cell-based; conditions: heat-inactivated or complement-active CD-1 mouse serum; FIG. 6A
Method: Overnight cultures of A. baumannii were subcultured to log-phase, washed in PBS, and resuspended at 1×10^6 CFUs/mL in 3 mL HBSS containing 50% CD-1 mouse serum that had been either heat-inactivated at 57° C. for 30 minutes or not. Tubes were shaken (200 rpm) for 2 hr at 37° C. and bacterial expansion was quantified by serially diluting cultures on TSA plates and counting CFUs.

A. baumannii HUMC1 [5] = assay: Immunogold transmission electron microscopy; assay type: binding; conditions: 40,000× magnification
Method: Mid-log-growth A. baumannii cultures were washed twice incubated with primary antibody (200 μg/mL) at room temperature for 30 min, washed three times in PBS, and resuspended in 50 μL PBS. Goat anti-mouse IgG 20 nm Gold Conjugated (TedPella Inc.) was added to each tube at a final concentration of 0.8 μg/mL and incubated at room temperature for 30 min. Bacteria were washed, pelleted, and resuspended in 500 μL of half-strength Karnovsky's Fixative (2% paraformaldehyde and 2.5% gluteraldehyde in 0.1M phosphate buffer) for 2 hours at room temperature. Following incubation, the pellet was dislodged from the bottom of the tube using a bent stick and allowed to sit in fixative overnight. After overnight fixation, fixative was carefully aspirated off and 1 mL of PBS was carefully added to the tube in order to prevent agitation of the pellet. The pellet was then post-fixed in 1% Osmium Tetroxide for 1 hour and stained with 1% Uranyl Acetate overnight. The pellet was then put in 15% BSA for 2 hours and subsequently subjected to another treatment with the half-strength Karnovsky's Fixative to harden. Pellets were washed in water, dehydrated, embedded in Epon, sectioned, and placed on copper grids. Electron Micrographs were taken on a JEOL JEM-2100 Microscope operating at 80 kV.

[6] = test system: A. baumannii cell surface; assay: Flow cytometry binding to A. baumannii cell surface
Method: Hybridoma pre-clones were selected for subcloning based on bacterial cell surface reactivity by flow cytometry. Briefly, A. baumannii was passaged to log phase, stained with the bacterial dye SYTO BC (LifeTech #B7277), then stained with pre-clone supernatant from 96-well plates at 4° C., rinsed, and counter-stained with CF 647-conjugated goat anti-mouse IgG (Sigma-Aldrich, #SAB4600182). Control samples were stained with mouse IgG1 isotype control mAb (R&D Systems, #MAB002). Percent positivity was determined by flow cytometry.
Hybridoma cell lines were propagated in 96-well flat-bottom plates in DMEM-20%, and supernatants were harvested from wells for initial flow cytometry screening to identify antibodies that bound to intact bacteria. In brief, A. baumannii isolates were passaged to log phase, stained with the bacterial dye SYTO BC (LifeTech #B7277), and incubated for 1 hr with undiluted supernatants collected from 96-well plates at 4° C. Cells were washed and counter-stained with a secondary antibody, CF647-conjugated goat anti-mouse IgG (Sigma-Aldrich, #SAB4600182). Control samples were stained with a mouse IgG1 isotype control MAb (R&D Systems, #MAB002) as a negative control, and mouse polyclonal HUMC1-immune serum as a positive control for bacterial binding. Hybridomas that tested positive for bacterial binding were subcloned by limiting dilution into 96-well plates to ensure clonality, expanded, and retested to confirm bacterial binding.

A. baumannii HUMC1 [7] = assay: Oropharyngeal aspiration pneumonia model, survival; assay type: in vivo, mice; conditions: for survival: oropharyngeal aspiration of HUMC1
Method: as §1, §2, §3

A. baumannii HUMC1 [8] = assay: Lethal bloodstream (i.v. tail-vein) infection model, survival; assay type: in vivo, mice; conditions: for protection against infection (survival): 100% lethal inoculum HUMC1 i.v., immediate treatment, FIG. 7A

B1: C8: mouse IgG1-kappa monoclonal antibody from hybridoma 9.1C8 (ATCC PTA-122177); light chain SEQ ID NO:2, heavy chain SEQ ID NO:3 (antibody, listed as Mus musculus, V domains shown)
VH: EVQLQQSGPELVKPGASVKISCKASGYSFTGYTMNWVKQSHGKSLEWIGRINPYNGDSFYNQKFKGKATLTVDKSSNIAHMEFLSLTSEDSAVYYCGRSGDGPWFAYWGQGTLVTVSA
VL: LPLSLPVSLGDQASISCRSSQSIVHNNGNTYLEWYLQKPGQSPKLLIYKVSNRFSGVPDRFSGSGSGTDFTLKISRVEAEDLGVYYCFQGSHVPLTFGAGTKLEIKGSRS
**Q.** B1 was tested. Which “protection against infection (survival)” value (A. baumannii HUMC1 [1]; approximately 10 μg) did it give?
**A.** 100%

**Q.** What about the “protection against infection (survival)” value (A. baumannii HUMC1 [1]; approximately 20 μg) of the same molecule?
**A.** 100%

**Q.** What about the survival (A. baumannii HUMC1 [1]; 0.5 μg once i.v. immediately) of the same molecule?
**A.** markedly improved survival; also recorded: significantly improved survival

**Q.** What about the survival (A. baumannii HUMC1 [1]; 5 μg once i.v. immediately) of the same molecule?
**A.** markedly improved survival; also recorded: fully protective

**Q.** What about the “surface binding by immunofluorescent staining” value (A. baumannii HUMC1 [2]) of the same molecule?
**A.** confirmed diffuse surface binding

**Q.** And the “western blot signal, periodate treated pili fraction” value ([3]; periodate treatment (degrades carbohydrates))?
**A.** eliminated completely

**Q.** And the “western blot signal, proteinase K treated pili fraction” value ([3]; proteinase K treatment)?
**A.** unchanged

**Q.** And the “western blot signal, untreated pili fraction” value ([3]; untreated)?
**A.** large conglomeration at the top of the gel

**Q.** And the “epitope / target on A. baumannii” value ([3]; western blots and flow binding to a capsule-mutant bacterial strain)?
**A.** binds to capsular polysaccharide

**Q.** What about the “impact on bacterial growth in vitro” value (A. baumannii HUMC1 [4]) of the same molecule?
**A.** minimal impact

**Q.** And the “physical binding site on the bacterial surface by electron microscopy” value (A. baumannii HUMC1 [5])?
**A.** bound to the pili on the bacterial surface; also recorded: binding to the pili

**Q.** And the “binding to the cell surface of A. baumannii by flow cytometry” value ([6]; HUMC1 strain)?
**A.** specifically bound; also recorded: to the same extent as polyclonal immune serum

**Q.** What about the “surface binding to other clinical isolates by flow cytometry” value ([6]; HUMC6, C14, ATCC 17978, AB0071, UH7007 (Table 7)) of the same molecule?
**A.** representative of 5 other strains; also recorded: Surface binding was confirmed to 4 other diverse clinical isolates

**Q.** And the “survival, delayed treatment” value (A. baumannii HUMC1 [7]; lung model, therapy administered 4 hr post-infection)?
**A.** fully protective

**Q.** What about the survival (A. baumannii HUMC1 [7]; 5 μg i.v., FIG. 4 / FIG. 9A) of the same molecule?
**A.** nearly fully protective; also recorded: markedly improved survival

**Q.** What about the survival (A. baumannii HUMC1 [7]; 50 μg i.p., FIG. 9B) of the same molecule?
**A.** fully protective

**Q.** And the “protection against infection (survival)” value (A. baumannii HUMC1 [8]; high dose (approximately 150 μg))?
**A.** 100%

**Q.** And the “protection against infection (survival)” value (A. baumannii HUMC1 [8]; low dose (approximately 50 μg))?
**A.** 100%

**Q.** What about the “survival, delayed treatment” value (A. baumannii HUMC1 [8]; i.v. infection, treated i.p. (50 μg) at 30 min post-infection, FIG. 7C) of the same molecule?
**A.** rescued from lethal infection

**Q.** What about the “survival, delayed treatment (monotherapy)” value (A. baumannii HUMC1 [8]; i.v. infection, treated i.p. at 1 hr post-infection, C8 150 μg, colistin 0.0125 mg/kg, FIG. 7D) of the same molecule?
**A.** not all mice survived; also recorded: minimally improved survival; also recorded: too late
